Data from paper PMC9891255.

Tests used:
UPF2S [1] = target: T1, UPF2S (Homo sapiens, UniProt Q9HAU5 761-1227); experiment: fluorescence anisotropy
UPF2-U1BD = UPF2-U1BD (Homo sapiens, UniProt Q9HAU5 1105-1227); experiment: fluorescence anisotropy
UPF2S [2] = target: T1, UPF2S; experiment: analytical SEC

T1 sequence (Q9HAU5 761-1227): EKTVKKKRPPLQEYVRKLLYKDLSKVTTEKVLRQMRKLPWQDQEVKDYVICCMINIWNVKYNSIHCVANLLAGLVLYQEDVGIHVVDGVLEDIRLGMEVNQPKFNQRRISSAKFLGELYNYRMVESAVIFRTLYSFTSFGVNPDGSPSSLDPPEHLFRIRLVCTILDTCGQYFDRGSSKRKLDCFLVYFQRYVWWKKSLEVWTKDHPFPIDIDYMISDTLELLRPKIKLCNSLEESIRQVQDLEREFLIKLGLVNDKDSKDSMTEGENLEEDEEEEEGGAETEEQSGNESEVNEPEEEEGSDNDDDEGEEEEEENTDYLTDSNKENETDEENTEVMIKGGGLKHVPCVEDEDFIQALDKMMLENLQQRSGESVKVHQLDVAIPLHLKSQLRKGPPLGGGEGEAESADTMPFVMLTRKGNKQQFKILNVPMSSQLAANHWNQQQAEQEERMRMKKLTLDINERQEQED
Chain of UPF2-U1BD (Q9HAU5 1105-1227): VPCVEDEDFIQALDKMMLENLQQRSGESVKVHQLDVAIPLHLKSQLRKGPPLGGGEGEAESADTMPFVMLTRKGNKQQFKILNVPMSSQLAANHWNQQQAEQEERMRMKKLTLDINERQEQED

## UUUUUUUUUUUU (ssRNA) [U12 RNA]
UPF2S [1]
  Kd: ~600 nM
UPF2-U1BD
  binding result: no binding

## UUUUUUUUUUUUUUU (ssRNA) [U15 RNA]
UPF2S [2]
  binding result: no binding
